From patent publication US20120244563A1

What was measured:
Assay in all cases: ELISA; coated glycoprotein, biotin-labeled lectin 1 µg/mL; grade of A450 reaction value (Low 0.1 to 0.2, Moderate 0.2 to 0.5, High 0.5 or more)
[1] = molecular target: Prostate-specific antigen (Homo sapiens (Human)) (UniProt P07288)
[2] = molecular target: α-Fetoprotein (Homo sapiens (Human)) (UniProt P02771)
[3] = molecular target: α-Fetoprotein L3 (Homo sapiens (Human)) (UniProt P02771)
[4] = molecular target: Immunoglobulin A
[5] = molecular target: Immunoglobulin G
[6] = molecular target: Immunoglobulin M
[7] = molecular target: α2-Macroglobulin
Sequence of α2-Macroglobulin (P01023 24-1474): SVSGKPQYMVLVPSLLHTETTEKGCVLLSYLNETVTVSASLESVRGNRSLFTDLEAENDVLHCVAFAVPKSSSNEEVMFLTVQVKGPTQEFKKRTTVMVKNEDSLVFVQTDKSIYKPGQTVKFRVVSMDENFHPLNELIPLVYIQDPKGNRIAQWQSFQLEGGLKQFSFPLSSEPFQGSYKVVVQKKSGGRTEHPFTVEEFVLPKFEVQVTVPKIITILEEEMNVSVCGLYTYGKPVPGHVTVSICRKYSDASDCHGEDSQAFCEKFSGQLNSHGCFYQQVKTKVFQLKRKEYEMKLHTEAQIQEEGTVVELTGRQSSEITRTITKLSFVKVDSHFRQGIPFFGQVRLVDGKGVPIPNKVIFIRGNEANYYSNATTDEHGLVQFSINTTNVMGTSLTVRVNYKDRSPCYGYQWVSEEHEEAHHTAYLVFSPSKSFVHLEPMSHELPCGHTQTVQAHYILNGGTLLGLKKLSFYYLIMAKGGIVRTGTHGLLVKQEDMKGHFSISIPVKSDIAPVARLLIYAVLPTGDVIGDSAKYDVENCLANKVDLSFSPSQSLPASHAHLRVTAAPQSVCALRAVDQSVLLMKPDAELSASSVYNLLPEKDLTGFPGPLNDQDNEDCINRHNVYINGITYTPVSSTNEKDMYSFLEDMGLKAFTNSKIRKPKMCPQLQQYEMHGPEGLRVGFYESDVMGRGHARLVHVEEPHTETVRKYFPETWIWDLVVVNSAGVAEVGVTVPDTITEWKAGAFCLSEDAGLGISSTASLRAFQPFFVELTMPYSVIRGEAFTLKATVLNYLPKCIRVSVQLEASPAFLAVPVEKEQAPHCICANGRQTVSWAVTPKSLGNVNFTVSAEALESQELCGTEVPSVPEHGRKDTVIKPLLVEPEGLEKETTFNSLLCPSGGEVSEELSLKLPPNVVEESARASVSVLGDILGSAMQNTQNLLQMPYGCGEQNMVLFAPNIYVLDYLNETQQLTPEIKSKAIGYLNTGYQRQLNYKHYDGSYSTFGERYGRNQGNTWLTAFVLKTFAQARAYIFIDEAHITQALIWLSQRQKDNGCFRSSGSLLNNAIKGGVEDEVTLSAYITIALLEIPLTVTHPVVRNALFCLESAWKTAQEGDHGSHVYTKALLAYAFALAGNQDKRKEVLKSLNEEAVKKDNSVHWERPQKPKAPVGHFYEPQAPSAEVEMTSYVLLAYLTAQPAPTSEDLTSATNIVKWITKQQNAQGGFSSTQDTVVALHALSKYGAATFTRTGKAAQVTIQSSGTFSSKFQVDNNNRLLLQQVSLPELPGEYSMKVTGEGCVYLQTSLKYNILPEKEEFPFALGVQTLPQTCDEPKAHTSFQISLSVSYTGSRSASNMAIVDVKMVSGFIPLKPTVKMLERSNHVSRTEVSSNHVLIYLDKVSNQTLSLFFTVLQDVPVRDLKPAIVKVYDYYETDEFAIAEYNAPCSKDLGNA

Sequence of α-Fetoprotein L3 (Homo sapiens (Human)) (P02771 19-609 limits assumed, form in doubt): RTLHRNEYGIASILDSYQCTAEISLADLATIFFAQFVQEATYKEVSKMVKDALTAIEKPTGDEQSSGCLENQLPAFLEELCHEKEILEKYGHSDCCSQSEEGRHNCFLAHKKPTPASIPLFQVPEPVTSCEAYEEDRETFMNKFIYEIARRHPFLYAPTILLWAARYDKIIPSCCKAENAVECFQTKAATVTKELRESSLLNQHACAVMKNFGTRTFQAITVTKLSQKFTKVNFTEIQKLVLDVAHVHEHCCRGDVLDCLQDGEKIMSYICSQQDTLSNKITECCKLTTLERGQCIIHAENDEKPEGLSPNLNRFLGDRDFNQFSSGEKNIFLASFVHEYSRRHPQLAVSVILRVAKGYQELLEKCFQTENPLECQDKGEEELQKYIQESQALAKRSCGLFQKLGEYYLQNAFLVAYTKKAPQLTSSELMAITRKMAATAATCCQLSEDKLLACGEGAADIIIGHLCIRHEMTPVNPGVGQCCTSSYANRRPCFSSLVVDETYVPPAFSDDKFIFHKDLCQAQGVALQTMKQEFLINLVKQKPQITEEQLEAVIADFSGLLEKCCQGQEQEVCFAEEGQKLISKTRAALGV
Sequence of Prostate-specific antigen (Homo sapiens (Human)) (P07288 25-261 limits assumed, form in doubt): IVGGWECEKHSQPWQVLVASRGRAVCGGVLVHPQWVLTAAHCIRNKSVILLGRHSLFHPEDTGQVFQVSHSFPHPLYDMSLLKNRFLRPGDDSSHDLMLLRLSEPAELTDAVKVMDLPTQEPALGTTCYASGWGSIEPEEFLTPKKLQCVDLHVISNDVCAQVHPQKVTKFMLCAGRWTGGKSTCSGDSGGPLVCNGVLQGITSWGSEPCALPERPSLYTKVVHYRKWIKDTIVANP
Sequence of α-Fetoprotein (Homo sapiens (Human)) (P02771 19-609 limits assumed, form in doubt): as the sequence (P02771 19-609 limits assumed, form in doubt) above

Substance | reaction value (absorbance at 450 nm minus blank) [1] | reaction value (absorbance at 450 nm minus blank) [2] | reaction value (absorbance at 450 nm minus blank) [3] | reaction value (absorbance at 450 nm minus blank) [4] | reaction value (absorbance at 450 nm minus blank) [5] | reaction value (absorbance at 450 nm minus blank) [6] | reaction value (absorbance at 450 nm minus blank) [7]
Aleuria aurantia lectin (from UniProt P18891 2-313) | 0.2 to 0.5 od | 0.2 to 0.5 od | > 0.5 od |  |  |  | 
Lens culinaris lectin (from UniProt P02870 31-210; P02870 218-269) |  |  | > 0.5 od |  |  |  | 
Pholiota terrestris Overholts lectin | > 0.5 od |  | > 0.5 od | 0.2 to 0.5 od | 0.1 to 0.2 od | 0.1 to 0.2 od | 0.2 to 0.5 od
